Target: anti-HRP antibody
Test: release of labelled peptide L1 from anti-HRP antibody in solution, HRP concentration varied; released peptide separated and read by fluorescence

EC50 (read off the curve): 900 nM
Substance: HRP (from UniProt P00433 31-338) (enzyme)

Source: patent publication US20230073007A1, “SWITCHING BINDER, PREPARATION METHOD THEREFOR, AND PHARMACEUTICAL COMPOSITION, ASSAY KIT, AND ANTIGEN AND ANTIBODY ASSAY METHOD, EACH USING SAME” (OPTOLANE TECHNOLOGIES INC., priority 2019, published 2023)
